One data set deals with T1, U2AF1 (UniProt Q01081).
T1 sequence: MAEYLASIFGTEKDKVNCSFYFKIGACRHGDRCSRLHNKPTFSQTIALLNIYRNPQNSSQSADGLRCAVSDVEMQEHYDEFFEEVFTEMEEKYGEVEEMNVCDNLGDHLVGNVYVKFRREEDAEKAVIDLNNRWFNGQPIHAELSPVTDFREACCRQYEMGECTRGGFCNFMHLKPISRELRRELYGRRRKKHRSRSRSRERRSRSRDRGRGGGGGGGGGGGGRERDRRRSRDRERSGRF
The data set can be described thus: EC50 of free RNA motif oligo competing protein binding to immobilised probe. Put shortly:
(§1)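 HEK293-FT lysate (2.5 mg protein/well) was treated with free RNA oligos (0 nM to 30 μM) for 1 h at 4°C, then with the same oligos on NHS-Sepharose beads for 30 min at 4°C. Bound proteins were quantified by label-free LC-MS/MS relative to the control. EC50 came from a four-parameter log-logistic fit, and Kd is EC50 times a protein-dependent depletion factor.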

In a further data set the target is T2, PUF60 (UniProt Q9UHX1).
T2 sequence: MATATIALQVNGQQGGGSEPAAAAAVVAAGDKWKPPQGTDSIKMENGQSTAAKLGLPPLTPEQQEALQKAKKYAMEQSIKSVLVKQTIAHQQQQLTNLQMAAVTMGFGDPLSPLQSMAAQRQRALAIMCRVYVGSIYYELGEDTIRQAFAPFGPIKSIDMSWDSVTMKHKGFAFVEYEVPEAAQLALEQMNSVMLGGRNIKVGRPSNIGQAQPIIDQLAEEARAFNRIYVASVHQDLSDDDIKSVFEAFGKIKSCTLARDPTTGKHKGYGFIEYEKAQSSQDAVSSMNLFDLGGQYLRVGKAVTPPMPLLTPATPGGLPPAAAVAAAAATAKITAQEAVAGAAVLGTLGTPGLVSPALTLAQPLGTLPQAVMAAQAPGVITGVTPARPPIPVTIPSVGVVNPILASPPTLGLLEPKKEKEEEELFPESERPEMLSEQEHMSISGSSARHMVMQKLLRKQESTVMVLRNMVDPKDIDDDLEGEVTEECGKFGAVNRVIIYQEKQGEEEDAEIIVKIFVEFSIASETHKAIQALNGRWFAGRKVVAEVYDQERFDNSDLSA
The data set can be described thus: Kd (EC50 corrected by depletion factor). The gist of the method:
as §1

The next data set deals with T3, CPSF7 (UniProt Q8N684).
T3 sequence: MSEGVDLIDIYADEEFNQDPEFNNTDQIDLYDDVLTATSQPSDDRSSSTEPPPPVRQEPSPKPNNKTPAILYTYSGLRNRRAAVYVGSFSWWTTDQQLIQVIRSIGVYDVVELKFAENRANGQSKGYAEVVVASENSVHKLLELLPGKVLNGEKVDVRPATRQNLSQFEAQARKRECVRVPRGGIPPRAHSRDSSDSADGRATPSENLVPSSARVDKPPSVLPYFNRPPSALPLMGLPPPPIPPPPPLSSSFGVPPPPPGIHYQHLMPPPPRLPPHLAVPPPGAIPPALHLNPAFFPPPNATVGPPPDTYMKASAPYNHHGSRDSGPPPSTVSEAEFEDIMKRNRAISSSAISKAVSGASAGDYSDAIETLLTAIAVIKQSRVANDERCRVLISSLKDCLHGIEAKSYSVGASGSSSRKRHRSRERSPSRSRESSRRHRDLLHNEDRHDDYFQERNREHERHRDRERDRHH
The data set can be described thus: Kd (EC50 corrected by depletion factor). Put shortly:
as §1

For the next data set, the target named is MRPL37 (UniProt Q9BZE1). The data set can be described thus: Kd (EC50 corrected by depletion factor). The gist of the method: as §1
In a further data set the target is MRPL19 (UniProt P49406). The experiment in a line: Kd (EC50 corrected by depletion factor). The gist of the method:
as §1

In a further data set the target is RPS14 (UniProt P62263). The data set can be described thus: Kd (EC50 corrected by depletion factor). Put shortly:
as §1

The next data set has as its target MRPS18A (UniProt Q9NVS2). The data set can be described thus: Kd (EC50 corrected by depletion factor). Put shortly: as §1
A further data set deals with T4, TRIM56 (UniProt Q9BRZ2).
T4 sequence: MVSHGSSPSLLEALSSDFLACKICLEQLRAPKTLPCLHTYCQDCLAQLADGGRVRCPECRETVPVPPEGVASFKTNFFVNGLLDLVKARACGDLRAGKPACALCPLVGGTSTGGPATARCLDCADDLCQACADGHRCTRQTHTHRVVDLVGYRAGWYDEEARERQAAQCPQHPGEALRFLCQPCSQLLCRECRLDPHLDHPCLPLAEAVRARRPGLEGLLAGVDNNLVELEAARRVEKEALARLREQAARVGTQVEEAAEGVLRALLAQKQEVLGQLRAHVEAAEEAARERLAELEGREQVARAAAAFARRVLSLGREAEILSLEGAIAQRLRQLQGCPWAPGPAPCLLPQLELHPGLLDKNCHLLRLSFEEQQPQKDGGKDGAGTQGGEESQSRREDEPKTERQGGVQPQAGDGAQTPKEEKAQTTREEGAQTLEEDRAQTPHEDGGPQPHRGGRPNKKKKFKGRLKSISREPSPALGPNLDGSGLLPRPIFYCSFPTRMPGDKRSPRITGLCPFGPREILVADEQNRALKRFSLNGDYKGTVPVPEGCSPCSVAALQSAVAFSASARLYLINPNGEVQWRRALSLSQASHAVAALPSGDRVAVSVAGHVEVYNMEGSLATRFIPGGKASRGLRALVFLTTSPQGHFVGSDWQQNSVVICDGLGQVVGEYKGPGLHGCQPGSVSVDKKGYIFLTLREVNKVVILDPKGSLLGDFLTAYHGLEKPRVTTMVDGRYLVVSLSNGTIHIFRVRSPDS
The data set can be described thus: EC50 of free RNA motif oligo competing protein binding to immobilised probe. The gist of the method:
as §1

For another data set, the target named is TSN (UniProt Q15631). The data set can be described thus: Kd (EC50 corrected by depletion factor). The gist of the method:
as §1

The next data set concerns the target CNBP (UniProt P62633). The data set can be described thus: Kd (EC50 corrected by depletion factor). Put shortly:
as §1

A further data set has as its target MRPS31 (UniProt Q92665). The data set can be described thus: Kd (EC50 corrected by depletion factor). The gist of the method: as §1

Sequence of CNBP (P62633 whole entry): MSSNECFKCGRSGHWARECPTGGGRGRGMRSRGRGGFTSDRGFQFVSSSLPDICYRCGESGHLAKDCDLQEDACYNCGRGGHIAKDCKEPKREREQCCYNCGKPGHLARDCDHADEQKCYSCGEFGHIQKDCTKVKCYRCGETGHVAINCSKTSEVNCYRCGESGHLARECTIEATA
Sequence of TSN (Q15631 whole entry): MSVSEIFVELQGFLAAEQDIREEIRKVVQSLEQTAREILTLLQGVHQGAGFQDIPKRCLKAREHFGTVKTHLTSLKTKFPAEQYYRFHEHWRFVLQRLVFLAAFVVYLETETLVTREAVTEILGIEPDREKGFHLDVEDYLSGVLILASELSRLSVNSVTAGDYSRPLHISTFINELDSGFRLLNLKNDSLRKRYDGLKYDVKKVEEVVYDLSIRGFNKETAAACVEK

Regarding AAUAAA, the EC50 (as a rule, the concentration at which the effect is half-maximal) in the data set with U2AF1 is 1460 nM. For the same sequence, the dissociation constant Kd – broadly, the concentration at which binding is half-saturated – was determined as 162 nM in the data set with PUF60 and 2100 nM with CPSF7.

Take CUGUCCU: the dissociation constant (Kd) in the data set with MRPL37 was 76.1 nM; with MRPL19 it was 54.1 nM; in the data set with RPS14 it was 126 nM; in the data set with MRPS18A, 23.9 nM.

In the data set with TRIM56, UAUUUAU registered an EC50 of 3450 nM. Also, the figures for the Kd with TSN, in the data set with CNBP and in the data set with MRPS31 were 16.8 nM, 1270 nM and 52.4 nM, respectively.

Values taken from the supplement of paper PMC6379048.
